Laboratory results taken from paper PMC6138654.

Molecular target: αβ-tubulin (tubulin dimer; as free tubulin, Tau-induced microtubules or Taxol-stabilized microtubules) (lamb (purified from lamb brains))

Tau F4 fragment labeled with MTSL (F4^MTSL), sequence (P10636 525-641): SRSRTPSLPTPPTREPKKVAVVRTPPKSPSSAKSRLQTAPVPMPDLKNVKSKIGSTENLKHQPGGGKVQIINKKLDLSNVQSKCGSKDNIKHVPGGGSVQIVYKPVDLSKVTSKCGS

Substance	k of MTSL label release (thiol-disulfide exchange) by EPR, h(−1)/h(0) against time; Induced-MTs, 10 µM labeled protein, 1:2 with tubulin, 37 °C [min⁻¹]	k of MTSL label release (thiol-disulfide exchange) by EPR, h(−1)/h(0) against time; Taxol-MTs, 10 µM labeled protein, 1:2 with tubulin, 37 °C [min⁻¹]	k of MTSL label release (thiol-disulfide exchange) by EPR, h(−1)/h(0) against time; Tau-MTs (induced), 10 µM labeled protein, 1:2 with tubulin, 37 °C [min⁻¹]
Tau F4 fragment labeled with MTSL (F4^MTSL) (from UniProt P10636-8 208-324) (domain or fragment)	0.217	0.025	–
Tau F4 fragment C291S mutant labeled with MTSL on C322 (C322^MTSL) (from UniProt P10636-8 208-324) (domain or fragment)	–	–	0.077
Tau F4 fragment C322S mutant labeled with MTSL on C291 (C291^MTSL) (from UniProt P10636-8 208-324) (domain or fragment)	–	–	0.127
